From paper PMC5059767 (2016)

Target: His-PKAC (human wild-type PKAC) (human, UniProt P17612 1-351)
Experiment: ITC

- Kd: 860 nM
B1: 36i peptide (25 aa ARHGAP36 pseudosubstrate motif) (peptide)
peptide: EPTLPREFTRRGRRGAVSVDSLAEL
